A short description of the assay: Acyl-CoA thioesterase assay with radiolabeled acyl-CoA, lysate of cells over-expressing ACH1. The assay is classed as biochemical. Conditions: lysate of transfected E. coli cells. The procedure: In these assays, radiolabeled acyl-CoA is used as a substrate in which the [^14C] label is on the fatty acid portion of the molecule, and the enzyme activity is measured by the amount of labeled free fatty acid released by the action of the enzyme. Typically, the acyl group is palmitoyl-CoA (16:0 Co-A) or oleoyl-CoA (18:1-CoA). Because the reaction pH must be below 9, as a pH above this level causes base-catalyzed hydrolysis of the substrate, in most experiments the enzyme activity is measured between pH 7 and 9. The reactions are conducted at room temperature. The reaction volume is generally kept from about 32 μl to 100 μl. Although the reaction times may vary, typical incubation times are 10-15 minutes, which is sufficient for even small amounts of protein.
The protein solution to be assayed, which can be purified protein over-expressed in E. coli or unpurified protein in a plant extract or a plant subfraction, such as purified chloroplasts, is brought to the desired volume with buffer (20 mM Tris-HCl, pH 7.2, 200 mM NaCl and 1 mM EDTA). […] An 850 μl aliquot of the hexane phase is added to 3 ml BCS, and the amount of radioactivity determined in a scintillation counter.
The level of acyl-CoA thioesterase activity is determined by the amount of radioactivity that is found in the hexane phase. […]

“Also recorded” adds a separate entry of the source.

B1: ACH1: Arabidopsis acyl-CoA thioesterase ACH1 (SEQ ID NO:5), expressed as fusion protein with a 6 histidine tag; assayed as cell lysate (protein, listed as Arabidopsis thaliana)
chain: MNTESVVEFLGNVTLLQRLPSSSLKRISEVVVFKGYDRGDYVVRENQNVDGVYFLLQGQAQVLRSAGEENYQEFPLKRYDFFGHGIFGDVYSADVVAVTELTCLLLMSDHRALLEIKSVSDSDKERCLVEDILYLEPLDLNVYRGFTPPNAPTYGKVYGGQLVGQALAAASKTVETMKIVHNFHCYFLLVGDINIPIIYDVNRLRDGNNFATRSVDARQKGKTIFTLFASFQKKQQGFIHQESTMPHTPAPETLLPREEMLERLVTEPLLPRDYRNQVATEISVPFPIDIRFCEPNRSTKQNKSPPRLKYWFRAKGKLSDDDQALHRCVVAFASDLIFATISLNPHRREGMSVAALSLDHSMWFHRPVRADDWLLFVIVSPTATESRGFATGKMFNRKGELVVSLTQEAVLREAVTIKPSFGAKL
For the molecule B1, the “acyl-CoA thioesterase activity of cell lysate compared with control plasmid cells” value is “no increased acyl-CoA thioesterase activity was observed in cell lysates; also recorded: no greater than the level of activity in cells transfected with a control plasmid”.

For the origin of these results see patent US6878861B2, “Acyl coenzyme A thioesterases” (Washington State University Research Foundation, priority 2000, dated 2005).
